T1: wild-type CBP80 expressed alone in insect cells (human, UniProt Q09161 1-790)
T1 sequence: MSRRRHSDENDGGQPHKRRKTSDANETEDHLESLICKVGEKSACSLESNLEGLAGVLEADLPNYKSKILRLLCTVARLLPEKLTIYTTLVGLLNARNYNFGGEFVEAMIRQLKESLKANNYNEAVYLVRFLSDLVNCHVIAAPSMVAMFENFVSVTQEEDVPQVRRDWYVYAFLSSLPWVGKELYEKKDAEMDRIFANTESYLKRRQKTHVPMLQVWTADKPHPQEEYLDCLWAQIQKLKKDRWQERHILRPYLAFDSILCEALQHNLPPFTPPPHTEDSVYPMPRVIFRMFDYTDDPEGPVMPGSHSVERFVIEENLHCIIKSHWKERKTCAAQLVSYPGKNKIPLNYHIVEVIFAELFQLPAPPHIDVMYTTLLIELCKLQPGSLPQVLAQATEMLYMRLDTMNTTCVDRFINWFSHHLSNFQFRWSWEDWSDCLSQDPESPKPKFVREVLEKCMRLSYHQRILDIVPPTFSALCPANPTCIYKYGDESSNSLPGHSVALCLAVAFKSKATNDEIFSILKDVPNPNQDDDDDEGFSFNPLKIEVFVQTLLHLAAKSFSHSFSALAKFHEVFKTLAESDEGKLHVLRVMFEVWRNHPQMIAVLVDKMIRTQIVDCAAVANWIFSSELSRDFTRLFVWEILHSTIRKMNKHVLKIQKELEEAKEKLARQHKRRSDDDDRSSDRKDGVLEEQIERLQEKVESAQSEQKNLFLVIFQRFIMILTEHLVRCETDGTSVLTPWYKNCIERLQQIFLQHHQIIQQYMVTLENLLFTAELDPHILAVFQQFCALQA


Assays:
[1] = biological target: T1, wild-type CBP80 expressed alone in …; assay: pull-down
[2] = biological target: T2, full-length human importin-β1 (human, UniProt Q14974 1-876); assay: native gel or EMSA
[3] = biological target: T2, full-length human importin-β1; assay: pull-down
[4] = biological target: T3, full-length human importin-α isoform 1 (karyopherin-α2) (human, UniProt P52292 1-529); assay: SEC
[5] = biological target: T3, full-length human importin-α isoform 1 …; assay: pull-down

T2 sequence (Q14974 whole entry): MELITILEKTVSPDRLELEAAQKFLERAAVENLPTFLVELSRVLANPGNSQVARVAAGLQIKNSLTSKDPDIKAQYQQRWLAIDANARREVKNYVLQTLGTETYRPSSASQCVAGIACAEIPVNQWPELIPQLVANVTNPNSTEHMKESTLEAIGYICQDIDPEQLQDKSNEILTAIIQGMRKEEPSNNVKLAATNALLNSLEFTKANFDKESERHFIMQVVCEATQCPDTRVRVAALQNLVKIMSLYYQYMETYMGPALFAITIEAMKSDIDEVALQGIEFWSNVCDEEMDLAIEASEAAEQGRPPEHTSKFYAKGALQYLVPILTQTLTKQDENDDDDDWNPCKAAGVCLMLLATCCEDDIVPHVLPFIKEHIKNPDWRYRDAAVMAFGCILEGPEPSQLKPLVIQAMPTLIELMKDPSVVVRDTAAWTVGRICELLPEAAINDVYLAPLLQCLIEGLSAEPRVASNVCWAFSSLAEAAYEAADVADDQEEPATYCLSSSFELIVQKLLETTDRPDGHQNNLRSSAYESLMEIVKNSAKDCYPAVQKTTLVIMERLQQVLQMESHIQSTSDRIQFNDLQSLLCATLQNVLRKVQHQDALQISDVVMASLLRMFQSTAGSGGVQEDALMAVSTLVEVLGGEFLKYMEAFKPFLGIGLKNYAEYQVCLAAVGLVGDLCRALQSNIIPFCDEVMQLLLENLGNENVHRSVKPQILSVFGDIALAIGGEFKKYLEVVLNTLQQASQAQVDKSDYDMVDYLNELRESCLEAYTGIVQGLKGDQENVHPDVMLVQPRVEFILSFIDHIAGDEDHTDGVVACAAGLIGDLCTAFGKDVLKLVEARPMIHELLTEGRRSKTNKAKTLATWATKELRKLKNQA

| binding result [1] | binding result [2] | Binder | other results |
| --- | --- | --- | --- |
| – | binds | CBP20 Δ126–156 (domain or fragment) MSGGLLKALRSDSYVELSQYRDQHFRGDNEEQEKLLKKSCTLYVGNLSFYTTEEQIYELFSKSGDIKKIIMGLDKMKKTACGFCFVEYYSRADAENAMRYINGTRLDDRIIRTDWDAGFKEGRQY | – |
| binds | – | His-tagged CBP20 Δ126–156 (domain or fragment) MSGGLLKALRSDSYVELSQYRDQHFRGDNEEQEKLLKKSCTLYVGNLSFYTTEEQIYELFSKSGDIKKIIMGLDKMKKTACGFCFVEYYSRADAENAMRYINGTRLDDRIIRTDWDAGFKEGRQY | – |
| binds | – | His-tagged CBP20 Δ1–14Δ126–156 (domain or fragment) VELSQYRDQHFRGDNEEQEKLLKKSCTLYVGNLSFYTTEEQIYELFSKSGDIKKIIMGLDKMKKTACGFCFVEYYSRADAENAMRYINGTRLDDRIIRTDWDAGFKEGRQY | – |

Further lines, the binder ahead of its results:

| Binder | binding result [1] | binding result [2] | other results |
| --- | --- | --- | --- |
| His-tagged CBP20 Δ1–14 (domain or fragment) VELSQYRDQHFRGDNEEQEKLLKKSCTLYVGNLSFYTTEEQIYELFSKSGDIKKIIMGLDKMKKTACGFCFVEYYSRADAENAMRYINGTRLDDRIIRTDWDAGFKEGRQYGRGRSGGQVRDEYRQDYDAGRGGYGKLAQNQ | binds | – | – |
| CBP20 Δ1–14 (domain or fragment) VELSQYRDQHFRGDNEEQEKLLKKSCTLYVGNLSFYTTEEQIYELFSKSGDIKKIIMGLDKMKKTACGFCFVEYYSRADAENAMRYINGTRLDDRIIRTDWDAGFKEGRQYGRGRSGGQVRDEYRQDYDAGRGGYGKLAQNQ | – | binds | – |
| His-tagged full-length CBP20 (natural protein) MSGGLLKALRSDSYVELSQYRDQHFRGDNEEQEKLLKKSCTLYVGNLSFYTTEEQIYELFSKSGDIKKIIMGLDKMKKTACGFCFVEYYSRADAENAMRYINGTRLDDRIIRTDWDAGFKEGRQYGRGRSGGQVRDEYRQDYDAGRGGYGKLAQNQ | binds | – | binding result [3]: binds |
| human nuclear cap-binding complex (CBC), CBP20 and CBP80 co-expressed (complex) chain 1: MSRRRHSDENDGGQPHKRRKTSDANETEDHLESLICKVGEKSACSLESNLEGLAGVLEADLPNYKSKILRLLCTVARLLPEKLTIYTTLVGLLNARNYNFGGEFVEAMIRQLKESLKANNYNEAVYLVRFLSDLVNCHVIAAPSMVAMFENFVSVTQEEDVPQVRRDWYVYAFLSSLPWVGKELYEKKDAEMDRIFANTESYLKRRQKTHVPMLQVWTADKPHPQEEYLDCLWAQIQKLKKDRWQERHILRPYLAFDSILCEALQHNLPPFTPPPHTEDSVYPMPRVIFRMFDYTDDPEGPVMPGSHSVERFVIEENLHCIIKSHWKERKTCAAQLVSYPGKNKIPLNYHIVEVIFAELFQLPAPPHIDVMYTTLLIELCKLQPGSLPQVLAQATEMLYMRLDTMNTTCVDRFINWFSHHLSNFQFRWSWEDWSDCLSQDPESPKPKFVREVLEKCMRLSYHQRILDIVPPTFSALCPANPTCIYKYGDESSNSLPGHSVALCLAVAFKSKATNDEIFSILKDVPNPNQDDDDDEGFSFNPLKIEVFVQTLLHLAAKSFSHSFSALAKFHEVFKTLAESDEGKLHVLRVMFEVWRNHPQMIAVLVDKMIRTQIVDCAAVANWIFSSELSRDFTRLFVWEILHSTIRKMNKHVLKIQKELEEAKEKLARQHKRRSDDDDRSSDRKDGVLEEQIERLQEKVESAQSEQKNLFLVIFQRFIMILTEHLVRCETDGTSVLTPWYKNCIERLQQIFLQHHQIIQQYMVTLENLLFTAELDPHILAVFQQFCALQA chain 2: MSGGLLKALRSDSYVELSQYRDQHFRGDNEEQEKLLKKSCTLYVGNLSFYTTEEQIYELFSKSGDIKKIIMGLDKMKKTACGFCFVEYYSRADAENAMRYINGTRLDDRIIRTDWDAGFKEGRQYGRGRSGGQVRDEYRQDYDAGRGGYGKLAQNQ | – | – | binding result [4]: binds |
| full-length CBP20 (natural protein) MSGGLLKALRSDSYVELSQYRDQHFRGDNEEQEKLLKKSCTLYVGNLSFYTTEEQIYELFSKSGDIKKIIMGLDKMKKTACGFCFVEYYSRADAENAMRYINGTRLDDRIIRTDWDAGFKEGRQYGRGRSGGQVRDEYRQDYDAGRGGYGKLAQNQ | – | binds | – |
| apo-CBC reconstituted from His-tagged CBP20 and CBP80 (complex) chain 1: MSGGLLKALRSDSYVELSQYRDQHFRGDNEEQEKLLKKSCTLYVGNLSFYTTEEQIYELFSKSGDIKKIIMGLDKMKKTACGFCFVEYYSRADAENAMRYINGTRLDDRIIRTDWDAGFKEGRQYGRGRSGGQVRDEYRQDYDAGRGGYGKLAQNQ chain 2: MSRRRHSDENDGGQPHKRRKTSDANETEDHLESLICKVGEKSACSLESNLEGLAGVLEADLPNYKSKILRLLCTVARLLPEKLTIYTTLVGLLNARNYNFGGEFVEAMIRQLKESLKANNYNEAVYLVRFLSDLVNCHVIAAPSMVAMFENFVSVTQEEDVPQVRRDWYVYAFLSSLPWVGKELYEKKDAEMDRIFANTESYLKRRQKTHVPMLQVWTADKPHPQEEYLDCLWAQIQKLKKDRWQERHILRPYLAFDSILCEALQHNLPPFTPPPHTEDSVYPMPRVIFRMFDYTDDPEGPVMPGSHSVERFVIEENLHCIIKSHWKERKTCAAQLVSYPGKNKIPLNYHIVEVIFAELFQLPAPPHIDVMYTTLLIELCKLQPGSLPQVLAQATEMLYMRLDTMNTTCVDRFINWFSHHLSNFQFRWSWEDWSDCLSQDPESPKPKFVREVLEKCMRLSYHQRILDIVPPTFSALCPANPTCIYKYGDESSNSLPGHSVALCLAVAFKSKATNDEIFSILKDVPNPNQDDDDDEGFSFNPLKIEVFVQTLLHLAAKSFSHSFSALAKFHEVFKTLAESDEGKLHVLRVMFEVWRNHPQMIAVLVDKMIRTQIVDCAAVANWIFSSELSRDFTRLFVWEILHSTIRKMNKHVLKIQKELEEAKEKLARQHKRRSDDDDRSSDRKDGVLEEQIERLQEKVESAQSEQKNLFLVIFQRFIMILTEHLVRCETDGTSVLTPWYKNCIERLQQIFLQHHQIIQQYMVTLENLLFTAELDPHILAVFQQFCALQA | – | – | binding result [5]: binds |

Reference: publication PMC2782468 (Nature structural & molecular biology, 2009)
